From the DeepSol protein solubility set

test: soluble on expression in E. coli; label from the status in PepcDB or PDB records

Q: For “MEKDLQLRVNEKLDVENILKDLDKYTPKRRGWTWRQPAENLQMGPFIYKDASTPLENSVALPSAKYFGDIDPQPLPVITTEIASGRFEDDIRRMRMAAWHGADHIMVIRTAGQSHYDGLIEGTPQGIGGVPITRKQVRAQRKALDLIEEEVGRPINYHSYVSGVAGPDIAVMFAEEGVNGAHQDPQYNVLYRNINMIRSFIDACESKTIMAWADMAQIDGAHNANATAREAWKVMPELMVQHALNSIFSLKVGMKKSNICLSTVPPTAPPAPSMYLDLPYAVALREMFEGYRMRAQMNTKYMEASTREATVTHVLNLLISKLTRADIQSTITPDEGRNVPWHIYNIEACDTAKQALIGMDGLMDMVQLKREGVLGDTVRELKERAVLFMEEIIEAGGYFNAVEQGFFVDSGYYPERNGDGIARQINGGIGAGTVFERDEDYMAPVTAHFGYNNVKQYDEALVSEPSKLIDGCTLEVPEKIVYIDELDENDNVNVRMEETKEFRHSSMIKPEVEWQADGTVLLTMFLPTSKRVAEFAAIEFAKKMNLEEVEVINREVMQEAEGTRIELKGRVPFSIDINSLVIPPEPEILSEDEIREDIEKTPLKIVAATVGEDEHSVGLREVIDIKHGGIEKYGVEVHYLGTSVPVEKLVDAAIELKADAILASTIISHDDIHYKNMKRIHELAVEKGIRDKIMIGCGGTQVTPEVAVKQGVDAGFGRGSKGIHVATFLVKKRREMREGKSEDPNSSSVDKLAAALEHHHHHH”, which “soluble on expression in E. coli” value is on record?
A: soluble

Q: For “HHHHHHFADLVIQVIDELKQFGVSVKTYGAKGDGVTDDIRAFEKAIESGFPVYVPYGTFMVSRGIKLPSNTVLTGAGKRNAVIRFMDSVGRGESLMYNENVTTGNENIFLSSFTLDGNNKRLGQGISGIGGSRESNLSIRACHNVYIRDIEAVDCTLHGIDITCGGLDYPYLGDGTTAPNPSENIWIENCEATGFGDDGITTHHSQYINILNCYSHDPRLTANCNGFEIDDGSRHVVLSNNRSKGCYGGIEIKAHGDAPAAYNISINGHMSVEDVRSYNFRHIGHHAATAPQSVSAKNIVASNLVSIRPNNKRGFQDNATPRVLAVSAYYGVVINGLTGYTDDPNLLTETVVSVQFRARNCSLNGVVLTGFSNSENGIYVIGGSRGGDAVNISNVTLNNSGRYGVSIGSGIENVSITNISGIGDGINSPVALVSTINSNPEISGLSSIGYPTVARVAGTDYNDGLTLFNGAFRASTTSSGKIHSEGFIMGSTSGCEASVSKSGVLTSSSSKTSSERSLIAGSSTSEAKGTYNTILGSLGAVADEQFAALISASQSRASGNHNLILSSYGINTTGSYKVNGGFEKINWELDSLNGRIKARDTVTGGNTWSDFAEYFESLGGQVIETGYLVTLEKGKIRKAEKGEKIIGVISETAGFVLGESSFEWQGAVLKNEFGGIIYEEVTTEDGVKFKRPLPNPDFDPNKNYIPRSQRREWHVVGLLGQIAVRIDETVKQGHSIDAVGGVATDGDNFIVQEITTPYTKEKGYGVAIVLVK”, which “soluble on expression in E. coli” value is on record?
A: soluble

Q: Which “soluble on expression in E. coli” value does the source give for “MAEAESVSVDGWDFSWLDGRATEQRPSWGYQRLMGERLARANAALDIQTGGGEVLAGAMTMPPVMVATESWPPNVAKATALLHPLGAVVVADADEPPLPFAEGAFDLVTSRHPATVWWDEIARVLRPGGTYFSQHVGHASVFELVEYFLGPQPTRPASSSRPANAADSAHRLRPVEGLPDDVGVPGVLGGLPDDVEQDPARGPA” here?
A: not soluble

Q: For “PMMPPVGVQASILSHDTIRITWADNSLPKHQKITDSRYYTVRWKTNIPANTKYKNANATTLSYLVTGLKPNTLYEFSVMVTKGRRSSTWSMTAHGTTFEL”, which “soluble on expression in E. coli” value is on record?
A: soluble

Q: With “MAVMIVGGGMAGATLALAISRLSQGTIPVDLIEAYSPLDKEHPGFDARALALSDGTRQQLAALGIWQAMSGNATAITDIHVSERGHASVVNLHAADYHVQALGHVVELHDVGQRLFSLLQQAPGVRLHCPAKVVAVTRTQENATLTLDNGTALTGQLLVAADGSHSMLSQSCGIHWQQHEYDQVAVIANVTTGEPHRGRAFERFTPHGPLALLPMSNGRSSLVWCHDKHRQHDVDGWSETEFRQQLQLAFGWRLGQFTHIGERHSYPLRLLTASQHTSHRLALVGNAAQTLHPIAGQGFNLGIRDVMSLAETLVEAVKNQQDIGQYSVLSRYQQRREPDQHTTVAITDGLVRLFANRYTALAVGRNLGLIAMNNLPLMRDAFARRTLGWVERLEHHHHHH” as the sequence, how does the “soluble on expression in E. coli” value read?
A: not soluble

Q: Which “soluble on expression in E. coli” value does the source give for “MVMNAILKKTHFSTAEYLADLAVQALIDEVNLTPKPALVDRRGGGAHDDLNLELMEKSAYSLFPMFKAMAEAAEIHGEVNQALREDIGQLGRQGEQRMLQVTHGINTHRGAIWSIGLVLTATALTLYKQEPCLITEICKTAAEIALLEDRFIPKQQFSHGQMVRQKFGINGAKQQAQQGFPIILEFGLVQLQCSRALNTTETEARLNALLAMMAELSDTCVVHRAGLDGLNMMQSGAREVLQLGGCSTNEGQQRLEQLEQNLLRIRASAGGAADLLATLLFLDQAEQHNSSAPQGRRNQWKY” here?
A: not soluble

Q: With “MKKIIALMLFLTFFAHANDSEPGSQYLKAAEAGDRRAQYFLADSWFSSGDLSKAEYWAQKAADSGDADACALLAQIKITNPVSLDYPQAKVLAEKAAQAGSKEGEVTLAHILVNTQAGKPDYPKAISLLENASEDLENDSAVDAQMLLGLIYANGVGIKADDDKATWYFKRSSAISRTGYSEYWAGMMFLNGEEGFIEKNKQKALHWLNLSCMEGFDTGCEEFEKLTNGLEHHHHHH” as the sequence, how does the “soluble on expression in E. coli” value read?
A: not soluble

Q: For “MAICILHYTNAQLARDWSFQQMCNFWGGEQTYHARKDGFKSLEGDKCTFNFPKASDNQKSAQQYCEDNVPYHINNAEASEYKTTCEAEATLICKSGWVQMFGRCYKITKTMMTRDKAEKHCKNQQDQTSTIAFMHREALPFRWNDYFTRVSRIWMDASEVVTNDLIYDVEGGNVLLAFDGYKYNLPNVAIARVSKDETAMVLCEYTPPMTKSESNYLLRRYGEIYYPPLVTSEAVYIRTTSSRIRNEEDKLADHKYCTEVMKPVFRGGRAQSASPTQGLHMPTQMRGINKSAPFKQNPTIKGEAVPFPLDNAIWRKGEPNESCDAATWSSAVVLSRRENEGLEVMSDARYAPIYCEQIVKGLSYTKCPDGFVEYYRKNEGKTWCHKYVWDDTANYDNAEQKCQQLGAHLSSFTSDEEFQFLNDMIAKSEQLPNTDYIEVLLGARRRKRCNDLSIVGRGGFSSDKESECSRRRVFEWLHDVAENPPNFLDAYWPSPYEPNHALVDEECLVMMSGKTNGGMVMEQGN”, which “soluble on expression in E. coli” value is on record?
A: not soluble

Q: For “MSLDENIVKTGSNEMELVDFRIFKQGHDKVYEGIYGVNVSKVREIIKIPSLTELPGVPDYIEGIFDLRGVVIPVVNLAKWMQITEPESTMLKPRVIITEFSNILIGFIVHEAKRIRRINWKDIEPATFSTGSGALDKGKITGVTRIENDEVLLILDLESVVEDLGIYAPKTDIDFGKIEKFTGTALILDDSMTARKRVKEMMQQMGFQVVEAKDGVEGINKLEELSQIYGESLNDTLKIIVSDVEMPQMDGFHFAARIKEDPRFKDIPIVFNSSLSNEFMNEKGVQEAGGEGYLVKFNASDFFNEIAKVIKKHQSQEGHHHHHH”, which “soluble on expression in E. coli” value is on record?
A: soluble

Q: Which “soluble on expression in E. coli” value does the source give for “SMPAYACQRPSPLTHHNTLLSEALETLAEAAGFEANEGRLLSFSRAASVLKSLPCPVASLSQLHGLPYFGEHSTRVIQELLEHGTCEEVKQVRCSERYQTMKLFTQVFGVGVKTANRWYQEGLRTLDELREQPQRLTQQQKAGLQYYQDLSTPVRRADAEALQQLIEAAVRQTLPGATVTLTGGFRRGKLQGHDVDFLITHPEEGQEVGLLPKVMSCLQSQGLVLYHQYHRSHLADSAHNLRQRSSTMDVFERSFCILGLPQPQQAALAGALPPCPTWKAVRVDLVVTPSSQFPFALLGWTGSQFFERELRRFSRQEKGLWLNSHGLFDPEQKRVFHATSEEDVFRLLGLKYLPPEQRNA” here?
A: soluble

Q: For “MGSDKIHHHHHHMSIPIIDLSQFQISNQVRRQNVVKNIYQACHEIGFMYIQNSGISPDLLEQVFSASKSFFDSPLAVKEQLAWNNEFINTGYVGLEREHLNPNQPGDLKEAFNIKNDIIINNFSSPILLTNNPVISTFYNACTELANTVLQAFALALELPEYFFTTRHNQKNHTLRLLHYPPLQTSPKPGQVRAGEHSDYGSLTLLFQHAVGGLEVQTTRKEWIAAPLIPGMVLVNTGDLMQRWTNHIFCSTKHRVMIPNDERVKKSRYSIAFFCHPNDDTEIACLESCSQRQSPIYPPILAGEYLLSSLQLTY”, which “soluble on expression in E. coli” value is on record?
A: not soluble

Q: For “MPFRSNNPITRDELLSRFFPQFHPVTTFNSGLSGGSFLIEHQGQRFVVRQPHDPDAPQSAFLRQYRALSQLPASIAPKPHLYLRDWMVVDYLPGAVKTYLPDTNELAGLLYYLHQQPRFGWRITLLPLLELYWQQSDPARRTVGWLRMLKRLRKAREPRPLRLSPLHMDVHAGNLVHSASGLKLIDWEYAGDGDIALELAAVWVENTEQHRQLVNDYATRAKIYPAQLWRQVRRWFPWLLMLKGGWFEYRWRQTGDQQFIRLADDTWRQLLIKQ”, which “soluble on expression in E. coli” value is on record?
A: not soluble
